This is an account of results in article PMC8868134, “Molecular Determinants for OMF Selectivity in Tripartite RND Multidrug Efflux Systems” (Antibiotics, 2022).

In assay [1] the target is OprN (outer membrane factor) (Pseudomonas aeruginosa) (UniProt Q9I0Y7). In words: BLI; OMF or MexB stabilised in biotinylated non-ionic amphipol (BNAPol) immobilised on streptavidin (SAX) biosensors, MexA as analyte (0-100 uM for OMFs, 0-200 uM for MexB); BLItz device, room temperature; 10 mM Tris/HCl pH 7.4, 100 mM NaCl, 0.01% NaN3, 0.05% DDM; Langmuir 1:1 fit. On the technique in general: BLI is a label-free optical method that tracks binding on a fibre tip over time.

Assay [2] has as its target MexB (RND inner membrane transporter) (Pseudomonas aeruginosa) (UniProt P52002). The description is as above.
The target of assay [3] is OprM wild type (outer membrane factor) (Pseudomonas aeruginosa) (UniProt Q51487). Described as above.
Assay [4] deals with OprM C-terminal deletion variant OprM_(Δ473-485) (Pseudomonas aeruginosa) (UniProt Q51487). Described as above.
Assay [5] has as its target TolC (outer membrane factor of E. coli) (Escherichia coli) (UniProt P02930). The description is as above.
Assay [6] has as its target MexA Q93R variant (Pseudomonas aeruginosa) (UniProt P52477). The experiment in a line: SEC + other: negative-staining EM; Superdex 200 PC 3.2/30 in 10 mM Tris/HCl pH 7.4, 100 mM NaCl, 0.01% NaN3, 0.05% DDM; peak fraction stained with uranyl acetate, single-particle average image.
Assay [7] concerns the target T1, OprM wild type (outer membrane factor) (Pseudomonas aeruginosa, UniProt Q51487 18-485).
T1 construct: OprM, outer membrane factor of MexA-MexB-OprM, Pseudomonas aeruginosa; Stabilised in biotinylated amphipol (BNAPol) for BLI and in MSP1D1/POPC nanodiscs for the tripartite complexes; also called OprMwt; OMF; source: expressed and purified from bacteria
T1 sequence: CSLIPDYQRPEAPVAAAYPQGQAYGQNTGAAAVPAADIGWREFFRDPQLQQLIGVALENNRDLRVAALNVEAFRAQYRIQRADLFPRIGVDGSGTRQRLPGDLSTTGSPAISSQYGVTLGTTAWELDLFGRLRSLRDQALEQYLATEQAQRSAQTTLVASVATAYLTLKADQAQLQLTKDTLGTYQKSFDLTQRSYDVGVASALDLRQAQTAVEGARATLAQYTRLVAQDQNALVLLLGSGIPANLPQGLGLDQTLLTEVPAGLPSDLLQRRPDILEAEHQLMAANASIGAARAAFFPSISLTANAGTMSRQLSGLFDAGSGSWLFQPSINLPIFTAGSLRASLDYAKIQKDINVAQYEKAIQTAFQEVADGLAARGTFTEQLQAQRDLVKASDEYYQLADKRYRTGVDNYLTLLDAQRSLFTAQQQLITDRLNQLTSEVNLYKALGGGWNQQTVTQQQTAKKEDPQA
In words: BLI; OMF or MexB stabilised in biotinylated non-ionic amphipol (BNAPol) immobilised on streptavidin (SAX) biosensors, MexA as analyte (0-100 uM for OMFs, 0-200 uM for MexB); BLItz device, room temperature; 10 mM Tris/HCl pH 7.4, 100 mM NaCl, 0.01% NaN3, 0.05% DDM; Langmuir 1:1 fit. The following applies: both partners purified.

A word on the Kd: it is the free concentration of one partner at which half of the binding sites on the other are occupied at equilibrium, for simple one-to-one binding. One may read the koff as a measure of how fast the partners let go of each other. Higher therefore signals fast dissociation. The kon is a measure of how fast the partners come together. One may read the stoichiometry N as a count of units in the complex or per binding partner.

As for “MexA Q93R variant (from UniProt P52477 24-383) (natural protein)”, the Kd in assay [1] is 26.9 µM; in assay [2], 17.4 µM; in assay [3] it was 32.9 µM; in assay [4] it was 25.7 µM; in assay [5] it was 17.8 µM. For the same molecule, the koff in assay [1] stood at 0.00238 s⁻¹; in assay [2], 0.003 s⁻¹; in assay [3], 0.00266 s⁻¹; in assay [4] it was 0.00263 s⁻¹; in assay [5], 0.00191 s⁻¹. The on-rate constant (kon) is 88 M⁻¹ s⁻¹ in assay [1]; 173 M⁻¹ s⁻¹ in assay [2]; 81 M⁻¹ s⁻¹ in assay [3]; 102 M⁻¹ s⁻¹ in assay [4]; 108 M⁻¹ s⁻¹ in assay [5]. Further, the stoichiometry N in assay [6] came out at 6.
In assay [1], “MexA wild type (periplasmic adaptor protein of MexA-MexB-OprM) (from UniProt P52477 24-383) (natural protein)” came in with a Kd of 20 µM, a dissociation rate constant (koff) of 0.00358 s⁻¹ and an association rate constant (kon) of 177 M⁻¹ s⁻¹. In assay [4], this molecule displayed a Kd of 44 µM, an off-rate constant (koff) of 0.00458 s⁻¹ and an on-rate (kon) of 103 M⁻¹ s⁻¹. In assay [5], this molecule displayed a dissociation constant Kd of 45.8 µM, an off-rate constant (koff) of 0.0058 s⁻¹ and a kon of 127 M⁻¹ s⁻¹.

B1: MexA wild type (periplasmic adaptor protein of MexA-MexB-OprM) (natural protein)
chain: CGKSEAPPPAQTPEVGIVTLEAQTVTLNTELPGRTNAFRIAEVRPQVNGIILKRLFKEGSDVKAGQQLYQIDPATYEADYQSAQANLASTQEQAQRYKLLVADQAVSKQQYADANAAYLQSKAAVEQARINLRYTKVLSPISGRIGRSAVTEGALVTNGQANAMATVQQLDPIYVDVTQPSTALLRLRRELASGQLERAGDNAAKVSLKLEDGSQYPLEGRLEFSEVSVDEGTGSVTIRAVFPNPNNELLPGMFVHAQLQEGVKQKAILAPQQGVTRDLKGQATALVVNAQNKVELRVIKADRVIGDKWLVTEGLNAGDKIITEGLQFVQPGVEVKTVPAKNVASAQKADAAPAKTDSKG
notes: MexA, periplasmic adaptor protein of the MexA-MexB-OprM efflux system, Pseudomonas aeruginosa; Kept in 0.05% DDM; also called MexAwt; PAP; source: expressed and purified from bacteria
B1: in assay [7], binding was put at a Kd of 12 µM, the koff was 0.00215 s⁻¹ and the kon came to 180 M⁻¹ s⁻¹.
